Measured values: article PMC5587741, “CLEC14a-HSP70-1A interaction regulates HSP70-1A-induced angiogenesis” (Scientific Reports, 2017)

Molecular target: T1, recombinant human HSP70-1A (rhHSP70-1A) (human, UniProt P0DMV8 1-641)
T1 construct: commercially available purified recombinant human HSP70-1A (HSPA1A); source: bought: Sino Biological Inc
Assay: BLI; Octet RED96; rhCLEC14a-ECD immobilised on amine-reactive biosensors; rhHSP70-1A 200-25 nM in 2-fold dilutions in 1x kinetics buffer; 1:1 binding model
Details: both partners purified

T1 sequence (P0DMV8 whole entry): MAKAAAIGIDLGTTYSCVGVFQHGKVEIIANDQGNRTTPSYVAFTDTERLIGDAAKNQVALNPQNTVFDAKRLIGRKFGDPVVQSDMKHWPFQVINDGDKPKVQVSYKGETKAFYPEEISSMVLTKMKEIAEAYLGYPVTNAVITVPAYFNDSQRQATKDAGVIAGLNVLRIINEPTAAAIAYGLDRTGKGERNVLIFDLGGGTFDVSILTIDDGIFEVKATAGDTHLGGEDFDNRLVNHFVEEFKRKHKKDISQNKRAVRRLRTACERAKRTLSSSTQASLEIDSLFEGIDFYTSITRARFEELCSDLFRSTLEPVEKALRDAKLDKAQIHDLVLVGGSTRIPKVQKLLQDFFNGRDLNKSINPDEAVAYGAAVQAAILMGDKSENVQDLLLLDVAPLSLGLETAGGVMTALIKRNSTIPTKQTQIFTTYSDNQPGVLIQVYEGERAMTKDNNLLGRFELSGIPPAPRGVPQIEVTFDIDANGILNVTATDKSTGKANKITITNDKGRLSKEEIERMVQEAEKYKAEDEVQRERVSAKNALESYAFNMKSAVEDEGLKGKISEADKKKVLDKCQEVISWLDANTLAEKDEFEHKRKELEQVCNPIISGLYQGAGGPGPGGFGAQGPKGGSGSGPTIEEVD

Kd: ~8 nM
B1: recombinant human CLEC14a extracellular domain (rhCLEC14a-ECD) (domain or fragment, UniProt Q86T13 22-397, looked up)
chain: EHPTADRAGCSASGACYSLHHATMKRQAAEEACILRGGALSTVRAGAELRAVLALLRAGPGPGGGSKDLLFWVALERRRSHCTLENEPLRGFSWLSSDPGGLESDTLQWVEEPQRSCTARRCAVLQATGGVEPAGWKEMRCHLRANGYLCKYQFEVLCPAPRPGAASNLSYRAPFQLHSAALDFSPPGTEVSALCRGQLPISVTCIADEIGARWDKLSGDVLCPCPGRYLRAGKCAELPNCLDDLGGFACECATGFELGKDGRSCVTSGEGQPTLGGTGVPTRRPPATATSPVPQRTWPIRVDEKLGETPLVPEQDNSVTSIPEIPRWGSQSTMSTLQMSLQAESKATITPSGSVISKFNSTTSSATPQAFDSSSA
notes: commercially available purified recombinant human CLEC14a extracellular domain; source: bought: Abcam
